{
  "source": "patent US20140087995A1",
  "about": "(published 2014)",
  "binders": {"B1": {"name": "N^ε1-[(4S)-4-carboxy-4-[[(4S)-4-carboxy-4-(19-carboxynonadecanoylamino)butanoyl]amino]butanoyl]-[Glu14,Arg17,Pro21,Pro27,His34,Glu35]-h-amylin (peptide)", "peptide": "K([γGlu-γGlu-C20 diacid])CNTATCATQRLAEFLRHSSPNFGAIPSSTNVGHETY-NH2", "modifications": "disulfide 2-7; N-terminus assumed", "SMILES": "CC[C@H](C)[C@H](NC(=O)[C@H](C)NC(=O)CNC(=O)[C@H](Cc1ccccc1)NC(=O)[C@H](CC(N)=O)NC(=O)[C@@H]1CCCN1C(=O)[C@H](CO)NC(=O)[C@H](CO)NC(=O)[C@H](Cc1c[nH]cn1)NC(=O)[C@H](CCCNC(=N)N)NC(=O)[C@H](CC(C)C)NC(=O)[C@H](Cc1ccccc1)NC(=O)[C@H](CCC(=O)O)NC(=O)[C@H](C)NC(=O)[C@H](CC(C)C)NC(=O)[C@H](CCCNC(=N)N)NC(=O)[C@H](CCC(N)=O)NC(=O)[C@@H](NC(=O)[C@H](C)NC(=O)[C@@H]1CSSC[C@H](NC(=O)[C@@H](N)CCCCNC(=O)CC[C@H](NC(=O)CC[C@H](NC(=O)CCCCCCCCCCCCCCCCCCC(=O)O)C(=O)O)C(=O)O)C(=O)N[C@@H](CC(N)=O)C(=O)N[C@@H]([C@@H](C)O)C(=O)N[C@@H](C)C(=O)N[C@@H]([C@@H](C)O)C(=O)N1)[C@@H](C)O)C(=O)N1CCC[C@H]1C(=O)N[C@@H](CO)C(=O)N[C@@H](CO)C(=O)N[C@H](C(=O)N[C@@H](CC(N)=O)C(=O)N[C@H](C(=O)NCC(=O)N[C@@H](Cc1c[nH]cn1)C(=O)N[C@@H](CCC(=O)O)C(=O)N[C@H](C(=O)N[C@@H](Cc1ccc(O)cc1)C(N)=O)[C@@H](C)O)C(C)C)[C@@H](C)O"}, "B2": {"name": "N^ε1-[(4S)-4-carboxy-4-[[(4S)-4-carboxy-4-(19-carboxynonadecanoylamino)butanoyl]amino]butanoyl]-[Glu14,Arg17,Pro21,Pro27,Pro34,Phe37]-h-amylin (peptide)", "peptide": "K([γGlu-γGlu-C20 diacid])CNTATCATQRLAEFLRHSSPNFGAIPSSTNVGPNTF-NH2", "modifications": "disulfide 2-7; N-terminus assumed", "SMILES": "CC[C@H](C)[C@H](NC(=O)[C@H](C)NC(=O)CNC(=O)[C@H](Cc1ccccc1)NC(=O)[C@H](CC(N)=O)NC(=O)[C@@H]1CCCN1C(=O)[C@H](CO)NC(=O)[C@H](CO)NC(=O)[C@H](Cc1c[nH]cn1)NC(=O)[C@H](CCCNC(=N)N)NC(=O)[C@H](CC(C)C)NC(=O)[C@H](Cc1ccccc1)NC(=O)[C@H](CCC(=O)O)NC(=O)[C@H](C)NC(=O)[C@H](CC(C)C)NC(=O)[C@H](CCCNC(=N)N)NC(=O)[C@H](CCC(N)=O)NC(=O)[C@@H](NC(=O)[C@H](C)NC(=O)[C@@H]1CSSC[C@H](NC(=O)[C@@H](N)CCCCNC(=O)CC[C@H](NC(=O)CC[C@H](NC(=O)CCCCCCCCCCCCCCCCCCC(=O)O)C(=O)O)C(=O)O)C(=O)N[C@@H](CC(N)=O)C(=O)N[C@@H]([C@@H](C)O)C(=O)N[C@@H](C)C(=O)N[C@@H]([C@@H](C)O)C(=O)N1)[C@@H](C)O)C(=O)N1CCC[C@H]1C(=O)N[C@@H](CO)C(=O)N[C@@H](CO)C(=O)N[C@H](C(=O)N[C@@H](CC(N)=O)C(=O)N[C@H](C(=O)NCC(=O)N1CCC[C@H]1C(=O)N[C@@H](CC(N)=O)C(=O)N[C@H](C(=O)N[C@@H](Cc1ccccc1)C(N)=O)[C@@H](C)O)C(C)C)[C@@H](C)O"}, "B3": {"name": "N^ε1-[(4S)-4-carboxy-4-[[(4S)-4-carboxy-4-(19-carboxynonadecanoylamino)butanoyl]amino]butanoyl]-[Glu14,Arg17,Pro21,Pro31,Pro34,Glu35]-h-amylin (peptide)", "peptide": "K([γGlu-γGlu-C20 diacid])CNTATCATQRLAEFLRHSSPNFGAILSSTPVGPETY-NH2", "modifications": "disulfide 2-7"}, "B4": {"name": "N^ε1-[(4S)-4-carboxy-4-[[(4S)-4-carboxy-4-(19-carboxynonadecanoylamino)butanoyl]amino]butanoyl]-[Ser14,Arg17,Pro21,Pro27,Pro34,Glu35]-h-amylin (peptide)", "peptide": "K([γGlu-γGlu-C20 diacid])CNTATCATQRLASFLRHSSPNFGAIPSSTNVGPETY-NH2", "modifications": "disulfide 2-7; N-terminus assumed", "SMILES": "CC[C@H](C)[C@H](NC(=O)[C@H](C)NC(=O)CNC(=O)[C@H](Cc1ccccc1)NC(=O)[C@H](CC(N)=O)NC(=O)[C@@H]1CCCN1C(=O)[C@H](CO)NC(=O)[C@H](CO)NC(=O)[C@H](Cc1c[nH]cn1)NC(=O)[C@H](CCCNC(=N)N)NC(=O)[C@H](CC(C)C)NC(=O)[C@H](Cc1ccccc1)NC(=O)[C@H](CO)NC(=O)[C@H](C)NC(=O)[C@H](CC(C)C)NC(=O)[C@H](CCCNC(=N)N)NC(=O)[C@H](CCC(N)=O)NC(=O)[C@@H](NC(=O)[C@H](C)NC(=O)[C@@H]1CSSC[C@H](NC(=O)[C@@H](N)CCCCNC(=O)CC[C@H](NC(=O)CC[C@H](NC(=O)CCCCCCCCCCCCCCCCCCC(=O)O)C(=O)O)C(=O)O)C(=O)N[C@@H](CC(N)=O)C(=O)N[C@@H]([C@@H](C)O)C(=O)N[C@@H](C)C(=O)N[C@@H]([C@@H](C)O)C(=O)N1)[C@@H](C)O)C(=O)N1CCC[C@H]1C(=O)N[C@@H](CO)C(=O)N[C@@H](CO)C(=O)N[C@H](C(=O)N[C@@H](CC(N)=O)C(=O)N[C@H](C(=O)NCC(=O)N1CCC[C@H]1C(=O)N[C@@H](CCC(=O)O)C(=O)N[C@H](C(=O)N[C@@H](Cc1ccc(O)cc1)C(N)=O)[C@@H](C)O)C(C)C)[C@@H](C)O", "notes": "also called compound 120"}, "B5": {"name": "N^ε1-[(4S)-4-carboxy-4-[[(4S)-4-carboxy-4-(19-carboxynonadecanoylamino)butanoyl]amino]butanoyl]-[Glu14,Arg17,Pro21,Pro27,Pro34,Arg35]-h-amylin (peptide)", "peptide": "K([γGlu-γGlu-C20 diacid])CNTATCATQRLAEFLRHSSPNFGAIPSSTNVGPRTY-NH2", "modifications": "disulfide 2-7; N-terminus assumed", "SMILES": "CC[C@H](C)[C@H](NC(=O)[C@H](C)NC(=O)CNC(=O)[C@H](Cc1ccccc1)NC(=O)[C@H](CC(N)=O)NC(=O)[C@@H]1CCCN1C(=O)[C@H](CO)NC(=O)[C@H](CO)NC(=O)[C@H](Cc1c[nH]cn1)NC(=O)[C@H](CCCNC(=N)N)NC(=O)[C@H](CC(C)C)NC(=O)[C@H](Cc1ccccc1)NC(=O)[C@H](CCC(=O)O)NC(=O)[C@H](C)NC(=O)[C@H](CC(C)C)NC(=O)[C@H](CCCNC(=N)N)NC(=O)[C@H](CCC(N)=O)NC(=O)[C@@H](NC(=O)[C@H](C)NC(=O)[C@@H]1CSSC[C@H](NC(=O)[C@@H](N)CCCCNC(=O)CC[C@H](NC(=O)CC[C@H](NC(=O)CCCCCCCCCCCCCCCCCCC(=O)O)C(=O)O)C(=O)O)C(=O)N[C@@H](CC(N)=O)C(=O)N[C@@H]([C@@H](C)O)C(=O)N[C@@H](C)C(=O)N[C@@H]([C@@H](C)O)C(=O)N1)[C@@H](C)O)C(=O)N1CCC[C@H]1C(=O)N[C@@H](CO)C(=O)N[C@@H](CO)C(=O)N[C@H](C(=O)N[C@@H](CC(N)=O)C(=O)N[C@H](C(=O)NCC(=O)N1CCC[C@H]1C(=O)N[C@@H](CCCNC(=N)N)C(=O)N[C@H](C(=O)N[C@@H](Cc1ccc(O)cc1)C(N)=O)[C@@H](C)O)C(C)C)[C@@H](C)O", "notes": "also called compound 110"}, "B6": {"name": "N^ε1-[(4S)-4-carboxy-4-[[(4S)-4-carboxy-4-(19-carboxynonadecanoylamino)butanoyl]amino]butanoyl]-[Glu14,Arg17,Pro21,Pro27,Pro34,His35]-h-amylin (peptide)", "peptide": "K([γGlu-γGlu-C20 diacid])CNTATCATQRLAEFLRHSSPNFGAIPSSTNVGPHTY-NH2", "modifications": "disulfide 2-7 (inferred)"}},
  "note": "Numbered stars: 1 amine (or outer) side, 2 acyl side, 3 side chain; on linkers, the order of the positions; unused ones are H or OH. Bridge positions count the residues as written; N and C are the ends. Side chains are listed from the residue outwards. Ends that are not written are not given here. * marks the point of attachment. C20 diacid = O=C(O)CCCCCCCCCCCCCCCCCCC(=O)*; γGlu = O=C(O)[C@H](CCC(=O)[*:2])N[*:1]",
  "data": [
    {"biological_target": "T1, rat amylin receptor (rat calcitonin receptor + rat RAMP 3) (rat, UniProt P32214 25-516; Q9JJ73 23-147)", "T1 construct": "whole, on cells; Membranes prepared from transiently transfected BHK tk'ts 13 cells; also called rAmylin-R; rat amylin 3(a) receptor", "T1 sequence (looked up) 1": "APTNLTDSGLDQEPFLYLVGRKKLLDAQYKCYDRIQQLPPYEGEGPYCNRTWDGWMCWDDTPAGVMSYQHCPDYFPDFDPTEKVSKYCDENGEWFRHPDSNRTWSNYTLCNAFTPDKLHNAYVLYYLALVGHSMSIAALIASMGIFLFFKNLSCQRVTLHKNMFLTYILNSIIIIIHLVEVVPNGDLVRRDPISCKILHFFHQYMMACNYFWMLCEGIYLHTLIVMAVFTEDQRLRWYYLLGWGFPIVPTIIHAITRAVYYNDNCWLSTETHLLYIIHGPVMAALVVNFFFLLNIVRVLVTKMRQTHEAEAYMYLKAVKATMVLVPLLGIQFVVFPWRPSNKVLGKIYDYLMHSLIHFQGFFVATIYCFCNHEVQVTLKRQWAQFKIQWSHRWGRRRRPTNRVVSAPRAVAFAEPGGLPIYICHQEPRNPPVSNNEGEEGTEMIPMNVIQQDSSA", "T1 sequence (looked up) 2": "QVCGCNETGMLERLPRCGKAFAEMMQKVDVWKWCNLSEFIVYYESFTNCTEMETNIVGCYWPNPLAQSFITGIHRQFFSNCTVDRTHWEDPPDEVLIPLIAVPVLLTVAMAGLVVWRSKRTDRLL", "assay": "SPA competition vs 125I-rat amylin, membranes (Assay VI)", "units": {"IC50": "µM"}, "values": [
      {"binder": "B1", "IC50": 0.00314},
      {"binder": "B2", "IC50": 0.000205},
      {"binder": "B3", "IC50": 0.000449},
      {"binder": "B4", "IC50": 0.000161},
      {"binder": "B5", "IC50": 0.000339},
      {"binder": "B6", "IC50": 0.000288}
    ]},
    {"biological_target": "T2, rat calcitonin receptor (rat, UniProt P32214 25-516)", "T2 construct": "whole, on cells; Membranes prepared from transiently transfected BHK tk'ts 13 cells; also called rCTR; rat calcitonin (a) receptor", "T2 sequence (looked up)": "T1 sequence (looked up) 1", "assay": "SPA competition vs 125I-calcitonin, membranes (Assay VIII)", "units": {"IC50": "µM"}, "values": [
      {"binder": "B1", "IC50": 0.498},
      {"binder": "B2", "IC50": 0.0234},
      {"binder": "B3", "IC50": 0.0335},
      {"binder": "B4", "IC50": 0.14},
      {"binder": "B5", "IC50": 0.0383},
      {"binder": "B6", "IC50": 0.021}
    ]},
    {"biological_target": "T2, rat calcitonin receptor", "assay": "ratio of IC50 on rat calcitonin receptor to IC50 on rat amylin receptor", "values": [
      {"binder": "B1", "Ratio rCT/rAmylin binding": 159},
      {"binder": "B2", "Ratio rCT/rAmylin binding": 114},
      {"binder": "B3", "Ratio rCT/rAmylin binding": 74.7},
      {"binder": "B4", "Ratio rCT/rAmylin binding": 868},
      {"binder": "B5", "Ratio rCT/rAmylin binding": 113},
      {"binder": "B6", "Ratio rCT/rAmylin binding": 73}
    ]},
    {"biological_target": "T3, human calcitonin receptor (human, UniProt P30988 25-474)", "T3 construct": "whole, on cells; Membranes from stably transfected BHK cells; also called hCTR; hCT", "T3 sequence (looked up)": "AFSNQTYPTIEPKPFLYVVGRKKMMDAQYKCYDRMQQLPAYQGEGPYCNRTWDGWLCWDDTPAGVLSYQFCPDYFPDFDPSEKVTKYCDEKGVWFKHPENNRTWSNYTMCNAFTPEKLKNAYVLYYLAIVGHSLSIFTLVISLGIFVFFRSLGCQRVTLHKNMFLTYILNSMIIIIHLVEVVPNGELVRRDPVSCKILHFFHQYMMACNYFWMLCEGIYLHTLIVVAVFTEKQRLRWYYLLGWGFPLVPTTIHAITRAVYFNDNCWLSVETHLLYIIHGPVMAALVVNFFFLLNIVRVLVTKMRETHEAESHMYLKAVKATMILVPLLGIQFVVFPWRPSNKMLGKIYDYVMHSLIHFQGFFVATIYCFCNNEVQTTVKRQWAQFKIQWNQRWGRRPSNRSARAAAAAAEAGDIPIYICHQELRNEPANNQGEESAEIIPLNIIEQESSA", "assay": "ratio of IC50 on human calcitonin receptor to IC50 on human amylin receptor", "in_short": "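Competition binding by SPA with cell membranes (35 ng/μL) and SPA beads in 50 mM Hepes pH 7.4 with 1 mM CaCl2, 5 mM MgCl2, 0.1% OA and 0.02% Tween20. Incubated 120 min at 25 °C with shaking, then counted.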", "values": [
      {"binder": "B1", "Ratio hCT/hAmylin binding": 29.1},
      {"binder": "B2", "Ratio hCT/hAmylin binding": 18},
      {"binder": "B3", "Ratio hCT/hAmylin binding": 22.6},
      {"binder": "B4", "Ratio hCT/hAmylin binding": 45.3},
      {"binder": "B5", "Ratio hCT/hAmylin binding": 53.6},
      {"binder": "B6", "Ratio hCT/hAmylin binding": 27.3}
    ]}
  ]
}
